From patent publication US20090318342A1, “Compounds” (IMPERIAL INNOVATIONS LIMITED, priority 2005, published 2009)

B1: N-TIMP-3: N-terminal inhibitory domain of TIMP-3 (residues 1 to 121), C-terminally His-tagged, wild-type (protein)
chain: CTCSPSHPQDAFCNSDIVIRAKVVGKKLVKEGPFGTLVYTIKQMKMYRGFTKMPHVQYIHTEASESLCGLKLEVNKYQYLLTGRVYDGKMYTGLCNFVERWDQLTLSQRKGLNYRYHLGCN
B2: -1A: N-TIMP-3 mutant with the addition of an N-terminal alanine extension (-1A) (protein)
chain: ACTCSPSHPQDAFCNSDIVIRAKVVGKKLVKEGPFGTLVYTIKQMKMYRGFTKMPHVQYIHTEASESLCGLKLEVNKYQYLLTGRVYDGKMYTGLCNFVERWDQLTLSQRKGLNYRYHLGCN
B3: (-2A)N-TIMP-3: N-TIMP-3 mutant with two alanine residues on the N-terminal side of Cysteine1 of the TIMP-3 sequence (protein)
chain: AACTCSPSHPQDAFCNSDIVIRAKVVGKKLVKEGPFGTLVYTIKQMKMYRGFTKMPHVQYIHTEASESLCGLKLEVNKYQYLLTGRVYDGKMYTGLCNFVERWDQLTLSQRKGLNYRYHLGCN

Columns and labels:
THP-1 cells = assay: Inhibition of TNF-α shedding from THP-1 cells (ELISA); format: cell-based, human; conditions: 100 ng/ml PMA, 6 h, 50 to 500 nM
Procedure: FIG. 3. Effects of mutations in N-TIMP-3 on inhibition of cellular shedding of TNF-α. THP-1 cells (2.5×10^6/ml) growing in serum-free RPMI-1640 medium were stimulated with 100 ng/ml PMA for 20 min before adding various concentrations of N-TIMP-3 (wild-type and mutants). Cells were allowed to grow for another 6 hr and conditioned media were collected for the ELISA assays.
Inhibition of TNF-α shedding from THP-1 cells—All TIMP solutions were dialyzed against 20 mM Tris-HCl (pH 7.0), 150 mM NaCl and 20% glycerol before use. Human monocyte THP-1 cells cultured in RPMI-1640 medium supplemented with 5% fetal calf serum were harvested, extensively washed and reseeded into serum-free medium at 2.5×10^6 cells/ml. […] The amount of soluble TNF-α released into the medium was measured using sandwich enzyme-linked immunosorbent assay, as described by Engelberts et al. (30) with modifications. The released TNF-α was absorbed to microtiter plates coated with mouse monoclonal anti-human TNF-α antibody BD551220 (1:200 dilution), and the bound TNF-α was detected using biotinylated mouse monoclonal anti-human TNF-α: antibody BD554511 (1:500 dilution) and streptavidin conjugated with horse radish peroxidase, and 3,3′,5,5′-tetramethylbenzidine as peroxidase substrate (KPL, Guildford, UK). The plates were read at 450 nm with an ELX808 plate reader (BIO-TEK Instruments Inc). […]

ADAMTS-5 = molecular target: T1, ADAMTS-5 (Homo sapiens, UniProt Q9UNA0); assay: Aggrecanase assay with GST-IGD-FLAG substrate, ADAMTS-5; format: biochemical; conditions: for Ki: Table 3, GST-IGD-FLAG substrate, pH 7.5, 37° C., read-out: Ki(app) ADAMTS-5
T1 sequence (Q9UNA0 262-930): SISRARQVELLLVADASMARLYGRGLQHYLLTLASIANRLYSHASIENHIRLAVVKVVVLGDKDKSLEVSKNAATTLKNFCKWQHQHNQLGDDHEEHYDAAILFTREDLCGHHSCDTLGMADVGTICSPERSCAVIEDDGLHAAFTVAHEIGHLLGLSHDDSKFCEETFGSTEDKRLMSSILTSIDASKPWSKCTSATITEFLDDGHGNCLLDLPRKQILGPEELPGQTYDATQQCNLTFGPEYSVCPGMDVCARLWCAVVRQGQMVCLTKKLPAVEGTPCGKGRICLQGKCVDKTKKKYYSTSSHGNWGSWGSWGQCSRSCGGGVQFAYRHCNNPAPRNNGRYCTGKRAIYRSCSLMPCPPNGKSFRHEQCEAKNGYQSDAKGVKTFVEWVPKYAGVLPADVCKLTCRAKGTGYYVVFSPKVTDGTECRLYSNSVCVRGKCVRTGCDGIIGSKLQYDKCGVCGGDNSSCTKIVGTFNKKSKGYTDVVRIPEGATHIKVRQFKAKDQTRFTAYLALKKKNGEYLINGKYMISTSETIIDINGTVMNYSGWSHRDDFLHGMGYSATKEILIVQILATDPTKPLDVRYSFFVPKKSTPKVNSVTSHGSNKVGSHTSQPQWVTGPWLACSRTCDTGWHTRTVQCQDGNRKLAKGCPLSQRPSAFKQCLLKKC
Procedure: FIG. 8. Graphs of Ki(app) determination. The GST-IGD-FLAG substrate assay was used to determine the Ki(app) of the N-terminal reactive site mutants against ADAMTS-4 (filled squares) and ADAMTS-5 (open circles).
The substrate containing glutathione S-transferase (GST) fused with the interglobular domain (IGD) of aggrecan (Tyr^331 to Gly^457) attached with a C-terminal FLAG sequence (GST-IGD-FLAG) was prepared by cloning it into pGEX-4T1 at the EcoR1 and Xho1 cloning sites. This substrate was expressed in E. coli strain BL-21 (non-DE3) transfected with the pGEX4T1 GST-IGD-FLAG plasmid by induction with […] isopropyl-beta-D-thiogalactopyranoside (IPTG). After induction, bacteria were collected by centrifugation and resuspended in 20 ml of 50 mM Tris-HCl (pH 8.0), 150 mM NaCl, 0.02% NaN3, […] DTT, […] EDTA with proteinase inhibitor cocktail set II inhibitors (Merck, Nottingham, UK). The resuspended bacteria were then disrupted mechanically using a French Press (5×1500 Psi). After centrifugation at 24,000 g (30 min, 4° C.), the supernatant, containing the expressed GST-IGD-FLAG, was applied to a glutathione-Sepharose 4B column (Qiagen, Crawley, UK). The column was washed with 0.5 M NaCl, 50 mM Tris-HCl (pH 8.0) and eluted with 10 mM reduced glutathione, 50 mM Tris-HCl (pH 8.0). The eluted material was dialysed three times against 10 volumes of 50 mM Tris-HCl (pH 8.0), 150 mM NaCl. […] The concentration of intact substrate (52 kDa) was determined by comparison with Coomassie Brilliant Blue staining of known amounts of bovine serum albumin (GE Healthsciences, Buckinghampshire, UK). […]
Aggrecanase assays were carried out in 50 mM Tris HCl pH 7.5, 150 mM NaCl, 10 mM CaCl2, 0.02% NaN3, 0.05% Brij-35 at 37° C. […] The stained gels were then scanned using a scanning densitometer (Biorad GS-710, Hemel Hempstead, UK) and the band intensity of the product (17 kDa) quantified using the 1D Phoretix quantification software (Nonlinear Dynamics, Newcastle upon Tyne, UK). Background subtraction was done using the rolling ball method, and band intensity expressed as pixel volumes.

| Molecule | Inhibition of PMA-stimulated release of TNF-α (THP-1 cells) | Ki (ADAMTS-5) | Potency for ADAMTS-5 relative to ADAMTS-4 (ADAMTS-5; ADAMTS-5 versus ADAMTS-4) |
| --- | --- | --- | --- |
| B1 | effectively inhibited | 0.4 ± 0.2 nM | – |
| B2 | only slightly reduced inhibitory activity | 1.9 ± 0.6 nM | – |
| B3 | – | – | about 45 times |
